# B1: Signal peptidase complex catalytic subunit SEC11 (Saccharomyces cerevisiae), P15367 (parent)
# chain: MNLRFELQKLLNVCFLFASAYMFWQGLAIATNSASPIVVVLSGSMEPAFQRGDILFLWNRNTFNQVGDVVVYEVEGKQIPIVHRVLRQHNNHADKQFLLTKGDNNAGNDISLYANKKIYLNKSKEIVGTVKGYFPQLGYITIWISENKYAKFALLGMLGLSALLGGE
# partner: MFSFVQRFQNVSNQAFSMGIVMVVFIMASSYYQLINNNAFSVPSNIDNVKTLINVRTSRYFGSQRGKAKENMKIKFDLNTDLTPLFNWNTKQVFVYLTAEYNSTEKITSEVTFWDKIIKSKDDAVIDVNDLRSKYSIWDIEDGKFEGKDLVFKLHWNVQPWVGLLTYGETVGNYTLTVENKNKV
# Variants of: B1
# Conditions: with spc3_yeast SPC3, Q12133
row,Variant,effect of a mutation on the interaction
1,MNLRFELQKLLNVCFLFASAYMFWQGLAIATNSASPIVVVLSGSMEPAFQRGDILFLWNRNTFNQVGDVVVYEVEGKQIPIVHRVLRQHNNHADKQFLLTKGNNNAGNDISLYANKKIYLNKSKEIVGTVKGYFPQLGYITIWISENKYAKFALLGMLGLSALLGGE [D103N],decreasing interaction
